Consider 36 sequences from the supplement of paper PMC10567573.

± gives the standard deviation.

The nature of the series: protein stability index of a GFP-peptide fusion (GPS, HEK-293T) (PSI 1-6); higher = more stable. The settings on record: c terminus: a fixed tail appended.
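Note: 24-mer peptide tiles fused after GFP, lentivirally expressed, FACS-sorted into six equal bins by GFP/DsRed ratio, decoded by Illumina sequencing, PSI is the read-weighted mean bin number.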

Regarding ARLFDEPQLASLCLDTIDKSTMDA [BTBD1], the protein stability index by setting is: (treatment: DMSO) 4.35 ± 0.43; (treatment: MLN4924 1 uM, 8 h) 4.53 ± 0.17.
For ARLRHQELFRLRGIKAQVALRLAE [NOP53], in that order: 2.22 ± 0.15 and 2.22 ± 0.31.
In the same order, the values of ARQEGLTFFGTELAPVRQQELASL [PBXIP1] are 3.56 ± 0.22 and 3.69 ± 0.48.
For ARSGHRCVADNTNLYVFGGYNPDY [KLHDC10], in that order: 2.23 ± 0.22 and 2.3 ± 0.36.
Consider ASLPSQKYPGPQAEGDSEGLSQGL [CHGA], for which the protein stability index was 5.2 ± 0.28 (treatment: DMSO) and 5.25 ± 0.17 (treatment: MLN4924 1 uM, 8 h).
Take ASSRSQQSSKRSSRSVEDDKEGHL [CLK3]: the protein stability index by setting is: (treatment: DMSO) 5.44 ± 0.079; (treatment: MLN4924 1 uM, 8 h) 5.52 ± 0.29.
Take ATDPFVAFHINKGLVKKYMNSLLI [FADS1]: the protein stability index runs as follows: (treatment: DMSO) 2.46 ± 0.59; (treatment: MLN4924 1 uM, 8 h) 2.64 ± 0.43.
On to ATPGEYSVNICGMNEHPVCSRTWT [SPAG8], for which the protein stability index (treatment: DMSO) turned out to be 2.44 ± 0.28 and the protein stability index (treatment: MLN4924 1 uM, 8 h) was 2.57 ± 0.39.
For AVDFTQEEWGQLDPTQRILYRDVM [ZNF8], in that order: 3.75 ± 0.18 and 3.88 ± 0.35.
On to AWISKIKGSPDVSASSDEPYARIQ [SMIM2], for which the protein stability index stood at 3.11 ± 0.38 (treatment: DMSO) and 3.44 ± 0.17 (treatment: MLN4924 1 uM, 8 h).
AWLPQAKVPFSQEIKDLILPKISD [PI4K2A] registered a protein stability index (treatment: DMSO) of 2.72 ± 0.059 and a protein stability index (treatment: MLN4924 1 uM, 8 h) of 2.78 ± 0.18.
For AYQQGVGYQMLGNVVTIGLAFFPF [PHTF1], in that order: 2.93 ± 0.39 and 3.13 ± 0.067.
Regarding CAFSRTLPWSSVLRVWDMFFCEGV [TBC1D10A], the protein stability index is, setting by setting: (treatment: DMSO) 2.85 ± 0.42; (treatment: MLN4924 1 uM, 8 h) 2.94 ± 0.49.
Take CAHCRAHLANHDDLISKSFQGSQG [YPEL3]: the protein stability index reads like this: (treatment: DMSO) 2.45 ± 0.34; (treatment: MLN4924 1 uM, 8 h) 2.74 ± 0.24.
CCLVKMESLEPDAQVLMLGQILEL [FANCE] gave a protein stability index (treatment: DMSO) of 3.04 ± 0.15 and a protein stability index (treatment: MLN4924 1 uM, 8 h) of 2.83 ± 0.48.
For CCRACSVSFSTGAGGWSNHHFCVI [BET1L], in that order: 2.42 ± 0.26 and 2.35 ± 0.33.
For CEEALCSNLSVENVADTLVLADLH [SPOPL], in that order: 4.52 ± 0.086 and 4.48 ± 0.22.
With CEETGELFEEPAPQALATRALPCP [FCHSD1], the protein stability index stood at 4.95 ± 0.2 (treatment: DMSO) and 4.9 ± 0.24 (treatment: MLN4924 1 uM, 8 h).
Take CEGPPRGKGFRDRNVTGTPLTGDK [ADAMTSL2]: the protein stability index reads like this: (treatment: DMSO) 5.07 ± 0.36; (treatment: MLN4924 1 uM, 8 h) 5.17 ± 0.16.
On to CEMDWSDKMEAYNIDETCGRHHSQ [TEKT4], for which the protein stability index reads like this: (treatment: DMSO) 4.53 ± 0.15; (treatment: MLN4924 1 uM, 8 h) 4.56 ± 0.13.
For CHSFAAAADGPTVCCNPYHFSRLC [SMAD6], in that order: 2.4 ± 0.35 and 2.22 ± 0.2.
In the same order, the values of CKARMERDGYGMTPLLAASVTGHT [FEM1A] are 2.9 ± 0.32 and 2.87 ± 0.2.
As for CLAQGWKQYQQRAFGWFRCSSCQR [RTP4], the protein stability index runs as follows: (treatment: DMSO) 2.15 ± 0.15; (treatment: MLN4924 1 uM, 8 h) 2.27 ± 0.28.
Take CLECGKSFCHGSSLKRHLKTHTGE [ZNF449]: the protein stability index by setting is: (treatment: DMSO) 4.78 ± 0.16; (treatment: MLN4924 1 uM, 8 h) 5.273 ± 0.015.
For CLSFQPECSMKLTPLVLEVFGNEI [VDR], in that order: 2.27 ± 0.38 and 2.52 ± 0.19.
For CQEWYARRHCPLPQATFWGLVTPR [SOAT2], the protein stability index reads like this: (treatment: DMSO) 2.32 ± 0.23; (treatment: MLN4924 1 uM, 8 h) 2.25 ± 0.54.
For the sequence CQEYLARNARIVHLVEETRIHVLP [CPXM2], the protein stability index (treatment: DMSO) came out at 2.2 ± 0.28 and the protein stability index (treatment: MLN4924 1 uM, 8 h) is 2.49 ± 0.35.
For CRCKNSNTVYCKLESCPSRGQGKP [SPRY1], the protein stability index by setting is: (treatment: DMSO) 3.66 ± 0.59; (treatment: MLN4924 1 uM, 8 h) 3.77 ± 0.29.
In the same order, the values of CRIQDLCAMEDHNCEQLCVNVPGS [MATN2] are 3.01 ± 0.44 and 2.77 ± 0.32.
For CSSKRSSIPLMGFEFEVRVCDSCH [WDFY2], in that order: 2.24 ± 0.39 and 2.15 ± 0.34.
For CTNIFYEEENPGGCEDEYLVNPTC [ZER1], the protein stability index reads like this: (treatment: DMSO) 4.31 ± 0.2; (treatment: MLN4924 1 uM, 8 h) 4.36 ± 0.33.
For CVVCGDKSSGKHYGQFTCEGCKSF [NR2F2], in that order: 4.76 ± 0.4 and 4.99 ± 0.14.
For DAASVYTLPAGADFLMCYSVAEGY [CASP6], in that order: 2.34 ± 0.22 and 2.33 ± 0.25.
For DAGEVSYLPRDFSTYRPLPDPSVW [MYORG], in that order: 3.29 ± 0.17 and 3.27 ± 0.38.
As for DAVPPGMESLISAPLVKTLEKEEE [CDC25B], the protein stability index stood at 5.44 ± 0.21 (treatment: DMSO) and 5.58 ± 0.33 (treatment: MLN4924 1 uM, 8 h).
For DDAVRVLREIVHKPGPITLTVAKC [DVL3], in that order: 2.87 ± 0.16 and 2.9 ± 0.17.
